Assay results published in patent US20100291677A1.
One block for each substance: values may come before it.

Assays:
Assay in all cases: cell-based or functional assay
[1] = molecular target: TSP1 (thrombospondin-1) protein (human) (UniProt P07996)
[2] = molecular target: IL-13Ra2 (interleukin 13 alpha 2 receptor) protein (human) (UniProt Q14627)
[3] = molecular target: MCP1 (monocyte chemoattractant protein-1) protein (human) (UniProt P13500)
TGF-beta = TGF-beta (UniProt P01137)
[4] = molecular target: FSTL1 (Follistatin-like 1) protein (human) (UniProt Q12841)
IL-10 protein = IL-10 protein (UniProt P22301)
UniProt P22301, sequence (P22301 19-178 limits assumed): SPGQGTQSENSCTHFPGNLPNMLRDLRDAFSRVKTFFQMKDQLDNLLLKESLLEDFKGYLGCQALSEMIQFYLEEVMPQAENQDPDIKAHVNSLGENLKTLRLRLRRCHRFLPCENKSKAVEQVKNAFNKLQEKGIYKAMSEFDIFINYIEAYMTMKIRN

UniProt Q14627, sequence (Q14627 27-380 limits assumed): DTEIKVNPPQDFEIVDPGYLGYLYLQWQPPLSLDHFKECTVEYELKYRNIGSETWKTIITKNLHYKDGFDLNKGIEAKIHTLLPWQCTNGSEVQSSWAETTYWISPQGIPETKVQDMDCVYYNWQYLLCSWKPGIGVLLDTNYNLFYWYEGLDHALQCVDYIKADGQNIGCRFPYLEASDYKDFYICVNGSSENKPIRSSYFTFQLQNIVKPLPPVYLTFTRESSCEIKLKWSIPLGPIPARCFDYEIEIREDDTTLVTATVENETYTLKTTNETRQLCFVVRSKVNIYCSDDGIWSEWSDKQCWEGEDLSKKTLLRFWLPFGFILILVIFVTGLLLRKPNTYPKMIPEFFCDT
UniProt P07996, sequence (P07996 19-1170 limits assumed): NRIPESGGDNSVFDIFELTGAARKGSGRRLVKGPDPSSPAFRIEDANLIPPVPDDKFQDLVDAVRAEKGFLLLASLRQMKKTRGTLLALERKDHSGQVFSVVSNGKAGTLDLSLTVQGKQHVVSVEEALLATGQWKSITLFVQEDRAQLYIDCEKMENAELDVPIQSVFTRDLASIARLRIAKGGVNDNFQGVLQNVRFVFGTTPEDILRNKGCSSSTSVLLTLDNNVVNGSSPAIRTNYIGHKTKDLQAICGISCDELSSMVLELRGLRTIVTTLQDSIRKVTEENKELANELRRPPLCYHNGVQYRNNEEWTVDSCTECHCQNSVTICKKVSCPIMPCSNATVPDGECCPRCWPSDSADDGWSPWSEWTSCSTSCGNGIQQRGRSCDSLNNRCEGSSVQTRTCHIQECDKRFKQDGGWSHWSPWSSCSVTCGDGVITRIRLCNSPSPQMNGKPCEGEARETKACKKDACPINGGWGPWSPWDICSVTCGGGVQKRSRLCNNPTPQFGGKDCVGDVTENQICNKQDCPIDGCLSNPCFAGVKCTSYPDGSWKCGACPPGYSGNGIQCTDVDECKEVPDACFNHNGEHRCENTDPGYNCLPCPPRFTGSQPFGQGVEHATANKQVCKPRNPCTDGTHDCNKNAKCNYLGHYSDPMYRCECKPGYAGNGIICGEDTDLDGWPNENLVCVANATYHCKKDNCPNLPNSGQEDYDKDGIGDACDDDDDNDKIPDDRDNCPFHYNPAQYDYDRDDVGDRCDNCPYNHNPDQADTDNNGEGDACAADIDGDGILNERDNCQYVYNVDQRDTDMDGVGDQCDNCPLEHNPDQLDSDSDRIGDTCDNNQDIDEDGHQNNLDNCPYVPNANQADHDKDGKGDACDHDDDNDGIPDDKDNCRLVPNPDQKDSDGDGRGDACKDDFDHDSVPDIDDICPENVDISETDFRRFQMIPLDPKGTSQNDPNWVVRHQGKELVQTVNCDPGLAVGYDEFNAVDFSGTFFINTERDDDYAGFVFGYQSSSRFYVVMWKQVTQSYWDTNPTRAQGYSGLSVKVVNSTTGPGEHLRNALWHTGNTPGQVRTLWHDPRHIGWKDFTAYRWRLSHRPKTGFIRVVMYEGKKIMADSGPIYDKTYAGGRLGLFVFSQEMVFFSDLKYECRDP
UniProt P01137, sequence (P01137 279-390 limits assumed): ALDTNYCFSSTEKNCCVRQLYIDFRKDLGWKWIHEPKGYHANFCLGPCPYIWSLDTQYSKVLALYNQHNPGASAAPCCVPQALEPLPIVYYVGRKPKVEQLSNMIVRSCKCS
UniProt P13500, sequence (P13500 24-99 limits assumed): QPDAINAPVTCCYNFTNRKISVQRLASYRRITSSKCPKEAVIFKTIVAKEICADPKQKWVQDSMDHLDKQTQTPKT
UniProt Q12841, sequence (Q12841 21-308 limits assumed): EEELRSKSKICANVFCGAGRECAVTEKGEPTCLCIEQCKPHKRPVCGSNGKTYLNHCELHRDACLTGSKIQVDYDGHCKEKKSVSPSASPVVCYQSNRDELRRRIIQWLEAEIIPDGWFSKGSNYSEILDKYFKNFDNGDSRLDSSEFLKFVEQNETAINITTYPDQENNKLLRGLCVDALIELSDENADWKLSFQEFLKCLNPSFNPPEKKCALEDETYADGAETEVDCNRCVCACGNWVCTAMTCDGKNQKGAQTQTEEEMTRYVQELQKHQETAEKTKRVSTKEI

FoxP3 protein expression in CD8+ cells, F3 cells (FIG. 13) [1]: 5.28
expression level of FoxP3 protein in CD4+ cells, F3 clone with antibody (FIG. 6; 35.34 without) [1]: 9.26
expression level of FoxP3 protein in CD4+ cells, F3 clone with antibody (FIG. 7; 38.39 without) [1]: 21.4
expression level of FoxP3 protein in CD4+CD25+ cells, F3 clone with antibody [1]: 27.8
expression level of FoxP3 protein in CD4+CD25- cells, F3 clone with antibody [1]: 16.6
Substance: anti-TSP1 antibody (ABCAM #ab3131)

FoxP3 protein expression in CD8+ cells, B11 cells (FIG. 14) [2]: 10.2
expression level of FoxP3 protein in CD4+ cells, F3 clone with antibody (FIG. 6) [2]: 11.9
expression of FoxP3 protein enhanced by the culture supernatant of B11 clone (FIG. 8; 23.69 without antibody) [2]: 7.6
Substance: anti-IL-13Ra2 antibody (R&D #AF146)

FoxP3 protein expression in CD8+ cells, F3 cells (FIG. 13) [3]: 12
decrease in cellular infiltration capability of F3 cells (matrigel Transwell, antibody at 1 ug/ml) [3]: 45%
expression level of FoxP3 protein in CD4+ cells, F3 clone with antibody (FIG. 6; 35.34 without) [3]: 16.3
expression level of FoxP3 protein in CD4+ cells, F3 clone with antibody (FIG. 7; 38.39 without) [3]: 22.9
expression level of FoxP3 protein in CD4+CD25+ cells, F3 clone with antibody [3]: 22.1
expression level of FoxP3 protein in CD4+CD25- cells, F3 clone with antibody [3]: 19
expression of FoxP3 protein enhanced by the culture supernatant of B11 clone (FIG. 8) [3]: 4.69
Substance: anti-MCP1 antibody (BD PharMingen #551226)

expression level of FoxP3 protein in CD4+ cells, F3 clone with antibody (FIG. 6) (TGF-beta): 23.4
expression level of FoxP3 protein in CD4+ cells, F3 clone with antibody (FIG. 7) (TGF-beta): 30.6
expression level of FoxP3 protein in CD4+CD25+ cells, F3 clone with antibody (TGF-beta): 28.9
expression level of FoxP3 protein in CD4+CD25- cells, F3 clone with antibody (TGF-beta): 28.4
Substance: anti-TGF-beta1 antibody (R&D #MAB246)

decrease in cellular infiltration capability of F3 cells (matrigel Transwell, antibody at 1 ug/ml) [4]: 45%
expression level of FoxP3 protein in CD4+ cells, F3 clone with antibody (FIG. 6; 35.34 without) [4]: 14.9
expression level of FoxP3 protein in CD4+ cells, F3 clone with antibody (FIG. 7; 38.39 without) [4]: 34.7
expression level of FoxP3 protein in CD4+CD25+ cells, F3 clone with antibody [4]: 29.9
expression level of FoxP3 protein in CD4+CD25- cells, F3 clone with antibody [4]: 32.6
Substance: anti-FSTL1 antibody (R&D #MAB1694)

expression level of FoxP3 protein in CD4+ cells, F3 clone with antibody (FIG. 6) (IL-10 protein): 11.4
expression level of FoxP3 protein in CD4+ cells, F3 clone with antibody (FIG. 7) (IL-10 protein): 30.9
expression level of FoxP3 protein in CD4+CD25+ cells, F3 clone with antibody (IL-10 protein): 29.9
expression level of FoxP3 protein in CD4+CD25- cells, F3 clone with antibody (IL-10 protein): 28.1
Substance: anti-IL-10 antibody (R&D #MAB2171)
